# Test results from patent US20220152100A1, “METHODS FOR CONTROLLED ACTIVATION OR ELIMINATION OF THERAPEUTIC CELLS” (Bellicum Pharmaceuticals, Inc., priority 2014, published 2022).
# Positions count from the first letter of the chain named. Names and notes keep the numbering of the source. “Also recorded” adds a separate entry of the source. Like-named read-outs stand apart in the source and are kept apart here.
# B1: D330A: chimeric modified Caspase-9 polypeptide, SEQ ID NO: 24 (protein)
# chain: GFGDVGALESLRGNADLAYILSMEPCGHCLIINNVNFCRESGLRTRTGSNIDCEKLRRRFSSLHFMVEVKGDLTAKKMVLALLELARQDHGALDCCVVVILSHGCQASHLQFPGAVYGTDGCPVSVEKIVNIFNGTSCPSLGGKPKLFFIQACGGEQKDHGFEVASTSPEDESPGSNPEPDATPFQEGLRTFDQLAAISSLPTPSDIFVSYSTFPGFVSWRDPKSGSWYVETLDDIFEQWAHSEDLQSLLLRVANAVSVKGIYKQMPGCFNFLRKKLFFKTS
# B2: N405Q: chimeric modified Caspase-9 polypeptide, SEQ ID NO: 26 (protein)
# chain: B1 chain with A196D, N271Q
# How the values were obtained:
# 293 cells [1] = tested on: 293 cells
# Description: To determine if the polarity of heterodimerization and Caspase-9 assembly could be reversed, one to four 1 to 4 tandem copies of FKBP12 were subcloned into expression vector, pSH1, as above. […] As above, 293 cells were transfected with the SRα-SEAP reporter plasmid along with FRBL-ΔCaspase-9, plus a non-myristoylated scaffold protein containing 1 or 4 tandem copies of FKBP12.
# 293 cells [2] = assay: SEAP assay: FRBl2-tagged CAR plus iCaspase-9, two-tiered apoptosis; format: cell-based, human; details: FRB-tagged CAR and FKBP-tagged Caspase-9, overnight
# Description: FIGS. 6A and 6B provide the results of an assay of two-tiered activation of apoptosis.
# As a proof of principal, two tandem FRBl domains were fused to either a 1st generation Her2-CAR or to a 1st generation CD19-CAR co-expressing inducible Caspase-9. 293 cells were transiently transfected with a constitutive reporter plasmid, SRα-SEAP, along with normalized levels of expression plasmids encoding Her2-CAR-FRBl2, iCaspase-9, Her2-CAR-FRBl2+iCasp9, iC9-CAR(19).FRBl2 (coexpressing both CD19-CAR-FRBl2 and iCaspase9), or control vector. […] After overnight incubation with drugs, SEAP activity was determined. […] This dose-dependent decrease required the presence of both the FRB-tagged CAR and the FKBP-tagged Caspase-9. […] Moreover, on- or off-target-mediated CAR clustering should increase the sensitivity of killing primarily at the site of scFv engagement.
# 293 cells [3] = tested on: 293 cells; remark: listed apart in the source
# Experimental: FIG. 12B: Cultures of HEK-293 cells were transfected (via Genejuice, Novagen) with the constitutive SRα-SEAP reporter plasmid (pBP0046, 1 μg), a fusion of human FKBP12 with human Caspase-9 (pBP0044, 2 μg) and FRB-encoding expression constructs, containing four copies of FRBL (pBP0725, 2 μg) or control vectors encoding zero or one copy of FRBL. […] FIG. 12C: Reporter assays were performed as in (B), but FRB-scaffolds were expressed from constructs encoding iterated FRBL domains with an amino-terminal myristoylation-targeting sequence and two (pBP0465) or four copies (pBP0721) of the FRBL domain.
# A subset of constructs also contained the myristoylation-targeting domain from v-Src for membrane localization of the FRB-scaffold (FIG. 12A). 293 cells were transfected with the SRα-SEAP reporter plasmid along with FKBP12-ΔCaspase-9 (iCaspase-9/CaspaCIDe), plus 1 of several FRB-based, non-myristoylated scaffold proteins containing 0, 1, or 4 tandem copies of FRBL.
# [4] = target: FKBP12 x4 scaffold (plasmid pBP0722, pSH1-Fpk-Fpk′.LS.Fpk″.Fpk′′′.LS.HA) (Homo sapiens (Human)) (UniProt P62942); assay: cell-based or functional assay
# [5] = target: FRBL x4 scaffold, not myristoylated (plasmid pBP0725, pSH1-FRBI.FRBI′.LS.FRBI″.FRBI′′′); assay: cell-based or functional assay
# Chain of FRBL x4 scaffold, not myristoylated (plasmid pBP0725, pSH1-FRBI.FRBI′.LS.FRBI″.FRBI′′′) (chain, as listed by the source limits assumed): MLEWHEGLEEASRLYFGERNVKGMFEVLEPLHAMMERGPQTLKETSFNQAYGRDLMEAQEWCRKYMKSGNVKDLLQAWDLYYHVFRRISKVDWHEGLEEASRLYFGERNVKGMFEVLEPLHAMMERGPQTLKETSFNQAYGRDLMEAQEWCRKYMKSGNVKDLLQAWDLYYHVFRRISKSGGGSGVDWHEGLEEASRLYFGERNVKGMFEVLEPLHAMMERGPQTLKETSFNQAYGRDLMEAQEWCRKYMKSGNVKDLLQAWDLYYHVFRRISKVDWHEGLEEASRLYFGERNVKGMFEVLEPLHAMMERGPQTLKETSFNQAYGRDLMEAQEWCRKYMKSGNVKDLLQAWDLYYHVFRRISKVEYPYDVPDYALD
# [6] = target: CD19-CAR-FRBl2 (1st generation CD19-CAR with two tandem FRBl domains, co-expressed with iCaspase-9 from iC9-CAR(19).FRBl2); assay: cell-based or functional assay
# [7] = target: Her2-CAR-FRBl2 (1st generation Her2-CAR with two tandem FRBl domains at its carboxy terminus); assay: cell-based or functional assay
# [8] = target: wt FRB (K2095 T2098 W2101) (Homo sapiens, UniProt P42345+P62942); details: cited from earlier work
# 293 cells [9] = assay: SEAP assay: iMC (tandem FKBP) plus FRBL2-Caspase-9; format: cell-based, human; details: tandem FKBPs (iMC) present
# Experimental: FIGS. 16A and 16B are line graphs showing that tandem FKBP scaffold mediates FRBL2. Caspase activation in the presence of rapalogs. FIG. 16A. HEK-293 cells were transfected with 1 μg each of SRα-SEAP reporter plasmid, Δmyr.iMC.2A-anti-CD19.CAR.CD3 (pBP0608), and FRBL2. Caspase-9 (pBP0467). […] After ON incubation, cell supernatants were assayed for SEAP activity, as previously described. FIG. 16B. Similar to the experiment described in (FIG. 16A), except that cells were transfected with a membrane-localized (myristoylated) iMC.2A-CD19.CAR.CD3ζ (pBP0609), instead of non-myristoylated Amyr.iMC.2A-CD19.CAR.CD3ζ (pBP0608).
# In a second test for rapalog-mediated scaffold-based activation of Caspase-9, 293 cells were transiently transfected with SRα-SEAP reporter plasmid, plus myristoylated or non-myristoylated inducible iMC co-expressed with 1st generation anti-CD19 CAR, plus FRBL2-fused Caspase-9 (plasmid pBP0467) (FIG. 16). […] Thus, rapamcyin and analogs can activate Caspase-9 via a molecular scaffold comprised of FRB or FKBP12 domains.
# 293T cells = assay: SeAP reporter assay: FRBL-Caspase9 plus FKBPv12-Caspase9 heterodimerization; format: cell-based, human; details: FRBL-Caspase9 plus FKBPv12-Caspase9
# Experimental: HEK 293T cells (5×10^5) were seeded on a 100-mm tissue culture dish in 10 mL DMEM4500, supplemented with glutamine, penicillin/streptomycin and 10% fetal calf serum. After 16-30 hours incubation, cells were transfected using Novagen's GeneJuice® protocol. Briefly, for each transfection, 0.5 mL OptiMEM was pipeted into a 1.5-mL microcentrifuge tube and 15 μL GeneJuice reagent added followed by 5 sec. vortexing. Samples were rested 5 minutes to settle the GeneJuice suspension. DNA (5 μg total) was added to each tube and mixed by pipetting up and down four times. Samples were allowed to rest for 5 minutes for GeneJuice-DNA complex formation and the suspension added dropwise to one dish of 293T cells. A typical transfection contains 1 μg SRα-SEAP (pBP0046) (3), 2 μg FRB-Caspase-9 (pBP0463) and 2 μg FKBPv12-Caspase-9 (pBP0044) (7).
# 24 hours following transfection (4.1), 293T cells were split to 96-well plates and incubated with dilutions of dimerizing drugs. Briefly, 100 μL media was added to each well of a 96-well flat-bottom plate. Drugs were diluted in tubes to a concentration 4× the top concentration in the gradient to be place on the plate. […] 100 μL from each drug-containing well was then transferred to the adjacent well and the cycle repeated 10 times to produce a serial two-fold step gradient. The last wells were untreated and serve as a control for basal reporter activity. […]
# 24 hours after drug stimulation, 96-well plates were wrapped to prevent evaporation and incubated at 65®C for 2 hours to inactivate endogenous and serum phosphatases while the heat-stable SeAP reporter remains (1, 4, 12). […] Phosphatase activity was measured by fluorescence with excitation at 355 nm and emission at 460 nm. […]
# FIG. 37—Drug induced programmed cell death by homodimerization or heterodimerization of tagged caspase 9. […] Reporter activity is expressed as a percentage of the average of 8 control wells containing no drug. […]
# FIG. 38—Rapalog-induced cell death switch. […] Reporter activity is expressed as a percentage of the average of 8 wells containing no drug. […]
# PG13 = format: cell-based; details: for CD19 mean fluorescence intensity (MFI): PG13 cross-transduced five times; for viral titers: upon HAT media treatment, HT1080 cells
# Primary T cells = assay: AP1903-dependent cytotoxicity in primary T cells transduced with iCasp9 variants (CD3+CD19+ flow cytometry); format: cell-based, human
# Experimental: The effects of various caspase polypeptides at mostly single copy in primary T cells was assayed. This may reflect more accurately how these suicide genes will be used therapeutically.
# Primary T cells from healthy donors (n=6) were transduced with retrovirus encoding mutant or wild-type iCasp9 or iCasp9-D330A, and the ΔCD19 cell surface marker. Following transduction, iCasp9-transduced T cells were purified using CD19-microbeads and a magnetic column.
# HEK293T/16 cells = assay: SEAP-based surrogate killing assay of iCasp9 mutants; format: cell-based, human; details: for effect on basal / catalytic activity: in words, versus wild type
molecule,measurement,setting,value
CO[C@H]1C[C@@H]2CC[C@@H](C)[C@@](O)(O2)C(=O)C(=O)N2CCCC[C@H]2C(=O)O[C@H]([C@H](C)C[C@@H]2CC[C@@H](O)[C@H](OC)C2)CC(=O)[C@H](C)/C=C(\C)[C@@H](O)[C@@H](OC)C(=O)[C@H](C)C[C@H](C)/C=C/C=C/C=C/1C [rapamycin],IC50,293 cells [1],~3 nM
same,decrease of SEAP activity,293 cells [2],~50%
same,IC50,293 cells [3],~3 nM
"FRBL-ΔCaspase-9 fusion protein (plasmid pBP0463, pSH1-FRBL.dCaspase9.T2A)",IC50 of rapamycin or C7-isopropoxy-rapamycin for diminution of constitutive SRα-SEAP reporter activity (cell death) in transfected 293 cells,[4],3 nM
"FKBP12v36-ΔCaspase-9 fusion protein (iCaspase-9; plasmid pBP0044, pSH1-iCaspase9wt)",IC50 of rapamycin or C7-isopropoxy-rapamycin for diminution of constitutive SRα-SEAP reporter activity (cell death) in transfected 293 cells,[5],3 nM
same,SRα-SEAP reporter activity after overnight rapamycin in transfected 293 cells,[6],50 % decrease
same,SRα-SEAP reporter activity after overnight rapamycin in transfected 293 cells,[7],50 % decrease
S-Butanesulfonamidorap [S-Butanesulfonamidorap (AP23050)],EC50,[8],~2.7 nM
"COC1CC(CC(C)C2CC(=O)C(C)C=C(C)C(O)C(OC)C(=O)C(C)CC(C)C=CC=CC=C(C)C(OC(C)C)CC3CCC(C)C(O)(O3)C(=O)C(=O)N3CCCCC3C(=O)O2)CCC1O (stereo not drawn) [C7-isopropoxy-rapamycin, C7-isopropoxyrapamycin]",activation of FRBL2-Caspase-9,293 cells [9],activated
same,cell death (loss of SeAP reporter),293T cells,dose-dependent high efficacy cell death switch
B1,CD19 mean fluorescence intensity (MFI),PG13,enhanced CD19 mean fluorescence intensity
same,viral titers,PG13,higher viral titers
same,sensitivity to AP1903 / killing of target cells,Primary T cells,more sensitive to AP1903 at low titers and kills at least as well as WT Caspase-9
same,IC50 of AP1903,"Primary T cells; 6 healthy donors, AP1903 0-100 nM, 24 hours",significantly lower
same,"relative SEAP activity Units (basal, without AP1903)",HEK293T/16 cells; 1 μg iCasp9 per million cells,148928
same,"relative SEAP activity Units (basal, without AP1903)",HEK293T/16 cells; 2 μg iCasp9 per million cells,136863
same,effect on basal / catalytic activity,HEK293T/16 cells,"lowered basal activity, but not as low as in N405Q; also recorded: less basal activity than wild type Caspase-9"
B2,CD19 mean fluorescence intensity (MFI),PG13,enhanced CD19 mean fluorescence intensity
same,viral titers,PG13,higher viral titers
same,sensitivity to AP1903 / killing of target cells,Primary T cells,less sensitive to AP1903 and cannot kill target cells as efficiently within 24 hours
same,killing of target T cells,"Primary T cells; AP1903 at Day 0 and day 4, within 10 days",can kill target T cells indistinguishable from wild type Caspase-9 polypeptide or D330A within 10 days
same,"relative SEAP activity Units (basal, without AP1903)",HEK293T/16 cells; 1 μg iCasp9 per million cells,179081
same,"relative SEAP activity Units (basal, without AP1903)",HEK293T/16 cells; 2 μg iCasp9 per million cells,175529
same,effect on basal / catalytic activity,HEK293T/16 cells,lowered basal activity; also recorded: lower basal activity than D330A
